Biological target: T1, glutathione S transferase (GST)-SQUAMOSA PROMOTER BINDING PROTEIN-LIKE9 (SPL9) (Arabidopsis thaliana, UniProt Q700W2 1-375)
T1 construct: SPL9, Arabidopsis thaliana; full-length cDNA without stop codon recombined into pDEST15 (N-GST); also called GST-SPL9; source: Escherichia coli, purified; not shown: GST, N-terminal, kept
T1 sequence (looked up): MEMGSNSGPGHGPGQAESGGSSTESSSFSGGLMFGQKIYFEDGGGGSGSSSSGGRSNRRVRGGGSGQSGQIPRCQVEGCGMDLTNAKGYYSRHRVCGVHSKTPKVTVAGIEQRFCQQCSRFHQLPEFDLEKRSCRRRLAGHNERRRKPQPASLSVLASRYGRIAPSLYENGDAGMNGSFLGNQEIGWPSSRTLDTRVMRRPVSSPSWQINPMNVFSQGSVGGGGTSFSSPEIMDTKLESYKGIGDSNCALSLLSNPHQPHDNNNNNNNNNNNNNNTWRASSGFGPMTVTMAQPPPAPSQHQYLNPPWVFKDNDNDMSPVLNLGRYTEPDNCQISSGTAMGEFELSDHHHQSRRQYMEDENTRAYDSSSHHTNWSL
Experiment: pull-down; glutathione beads with 1 µg GST-SPL9 incubated with 1 µg MBP or MBP-BZR1; 20 mM Tris-HCl pH 7.5, 100 mM NaCl, 1 mM EDTA, 4 °C, 1 h; washed 10 times with 300 mM NaCl, 0.5% TritonX-100; anti-MBP and anti-GST blots
Details: both partners purified

B1: Maltose binding protein (MBP)-BRASSINAZOLE RESISTANT 1 (BZR1) (natural protein, Arabidopsis thaliana, UniProt Q8S307 1-336, looked up)
chain: MTSDGATSTSAAAAAAAAAAARRKPSWRERENNRRRERRRRAVAAKIYTGLRAQGDYNLPKHCDNNEVLKALCVEAGWVVEEDGTTYRKGCKPLPGEIAGTSSRVTPYSSQNQSPLSSAFQSPIPSYQVSPSSSSFPSPSRGEPNNNMSSTFFPFLRNGGIPSSLPSLRISNSCPVTPPVSSPTSKNPKPLPNWESIAKQSMAIAKQSMASFNYPFYAVSAPASPTHRHQFHTPATIPECDESDSSTVDSGHWISFQKFAQQQPFSASMVPTSPTFNLVKPAPQQMSPNTAAFQEIGQSSEFKFENSQVKPWEGERIHDVGMEDLELTLGNGKARG
notes: BZR1, Arabidopsis thaliana; also called MBP-BZR1; MBP-fused BZR1; source: Escherichia coli, purified
binding result: binds

— PMC8509050, “BZR1 Physically Interacts with SPL9 to Regulate the Vegetative Phase Change and Cell Elongation in Arabidopsis” (International Journal of Molecular Sciences, 2021)
